Here are results for 2 molecules from PMC3702509, “Label Free Fragment Screening Using Surface Plasmon Resonance as a Tool for Fragment Finding – Analyzing Parkin, a Difficult CNS Target” (PLoS ONE, 2013).

First the molecules themselves.
B1: His-tagged ubiquitin-like domain of Parkin (UblD, residues 1-76) (domain or fragment, human, UniProt O60260-1 1-76, looked up)
chain: MIVFVRFNSSHGFPVEVDSDTSIFQLKEVVAKRQGVPADQLRVIFAGKELRNDWTVQNCDLDQQSIVHIVQRPWRK
notes: Parkin residues 1-76 (NM_004562.1), ubiquitin-like domain; also called His-UblD; source: E. coli BL21 DE3, purified (nickel sepharose, dialysed for Biacore); not shown: His6, C-terminal, kept
B2: Parkin domain R0RBR (residues 141-465) (domain or fragment, human, UniProt O60260-1 141-465, looked up)
chain: SIYNSFYVYCKGPCQRVQPGKLRVQCSTCRQATLTLTQGPSCWDDVLIPNRMSGECQSPHCPGTSAEFFFKCGAHPTSDKETSVALHLIATNSRNITCITCTDVRSPVLVFQCNSRHVICLDCFHLYCVTRLNDRQFVHDPQLGYSLPCVAGCPNSLIKELHHFRILGEEQYNRYQQYGAEECVLQMGGVLCPRPGCGAGLLPEPDQRKVTCEGGNGLGCGFAFCRECKEAYHEGECSAVFEASGTTTQAYRVDERAAEQARWEAASKETIKKTTKPCPRCHVPVEKNGGCMHMKCPQPQCRLEWCWNCGCEWNRVCMGDHWFDV
notes: Parkin residues 141-465 (NM_004562.1), R0, R1, IBR and R2 domains; Cloned into the Champion pET SUMO vector; The Sumo tag was removed with SENP1, and the protein is called untagged in the SPR methods; also called R0RBR Domain; source: E. coli BL21 DE3, purified (Ni sepharose, Mono Q, SENP1 cleavage, Superdex 200)

Holding throughout (assay): SPR; untagged R0RBR immobilised by amine coupling (10 mM acetic acid pH 5.0) on a CM5 chip; protein ligands injected; 25°C; 10 mM HEPES pH 7.4, 150 mM NaCl, 0.005% Tween-20, 4 mM reducing agent; 1:1 binding model
Conditions in all cases: both partners purified

For test [1], the target named is B2.
Test [2] concerns the target T1, UbcH7, E2 ubiquitin conjugating enzyme (UBE2L3 residues 1-154) (human, UniProt P68036-1 1-154).
T1 construct: UBE2L3 (UbcH7) residues 1-154 from NM_003347.2; UbcH7 was also bought from Boston Biochem. TEV cleavage probably leaves SS at the N-terminus (surmised); also called E2 UbcH7; source: E. coli BL21 DE3, purified (nickel sepharose, TEV cleavage, Superdex 200); not shown: His8, N-terminal, cleaved

In another test the target is T2, Ubiquitin (UniProt P0CG47 1-76).
T2 construct: ubiquitin, the cut product of a polyubiquitin or fusion precursor; neither species nor construct is stated; also called Ubq; source: bought: Boston Biochem

T1 sequence (P68036 whole entry, the tested form may be a part): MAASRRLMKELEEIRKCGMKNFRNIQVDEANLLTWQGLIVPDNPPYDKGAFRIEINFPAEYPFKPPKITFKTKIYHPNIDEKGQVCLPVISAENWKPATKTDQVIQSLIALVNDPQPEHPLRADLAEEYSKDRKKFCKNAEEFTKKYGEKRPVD

The Kd is the equilibrium constant for the complex coming apart. A higher Kd goes with a looser complex. In turn, B1 registered a Kd in test [1] of 6 µM. That is a single-digit micromolar value.
In the case of B2, the values for the Kd (in test [2]; in the test with Ubiquitin) were 7.1 µM and 96 µM, respectively.
